T1: B7-H3 on MDA-MB-468 cells (human, UniProt Q5ZPR3)
T1 construct: endogenous, on the cell surface
T1 sequence (cell surface antigen, looked up): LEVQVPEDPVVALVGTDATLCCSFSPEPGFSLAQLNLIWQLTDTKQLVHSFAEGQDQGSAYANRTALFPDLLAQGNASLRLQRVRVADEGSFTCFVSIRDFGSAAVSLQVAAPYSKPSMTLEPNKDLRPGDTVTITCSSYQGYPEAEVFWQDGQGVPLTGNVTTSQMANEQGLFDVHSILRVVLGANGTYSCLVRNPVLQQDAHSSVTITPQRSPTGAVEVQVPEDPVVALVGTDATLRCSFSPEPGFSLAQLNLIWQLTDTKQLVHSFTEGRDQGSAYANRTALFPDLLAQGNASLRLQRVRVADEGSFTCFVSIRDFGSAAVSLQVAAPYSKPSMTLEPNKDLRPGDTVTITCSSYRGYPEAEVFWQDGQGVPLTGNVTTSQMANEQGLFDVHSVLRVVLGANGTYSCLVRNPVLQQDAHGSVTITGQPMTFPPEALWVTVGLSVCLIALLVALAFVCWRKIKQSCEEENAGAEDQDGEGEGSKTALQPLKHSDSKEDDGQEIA

T2: Lag3 (NCBI Reference Sequence: NP_002277.4) on Lag3-CHO cells (UniProt P18627 23-525, limits assumed)
T2 construct: whole, on cells
T2 sequence (looked up): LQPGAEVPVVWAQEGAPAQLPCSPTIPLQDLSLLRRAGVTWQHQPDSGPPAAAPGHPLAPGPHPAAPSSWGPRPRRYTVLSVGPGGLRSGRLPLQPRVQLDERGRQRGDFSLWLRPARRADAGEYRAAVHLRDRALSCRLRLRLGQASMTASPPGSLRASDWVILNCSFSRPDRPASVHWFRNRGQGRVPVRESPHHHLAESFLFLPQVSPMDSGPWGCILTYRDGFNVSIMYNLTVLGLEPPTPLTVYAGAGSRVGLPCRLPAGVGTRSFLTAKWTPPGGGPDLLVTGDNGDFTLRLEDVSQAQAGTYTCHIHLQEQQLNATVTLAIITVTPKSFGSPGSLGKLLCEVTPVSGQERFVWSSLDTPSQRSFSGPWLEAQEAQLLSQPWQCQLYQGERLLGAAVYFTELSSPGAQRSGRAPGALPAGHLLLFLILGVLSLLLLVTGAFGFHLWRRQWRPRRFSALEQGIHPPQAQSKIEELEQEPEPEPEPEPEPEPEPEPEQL

T3: antigen hB7-H3-His (human, UniProt Q5ZPR3 29-461)
T3 construct: residues 1-28 are left out on that ground
T3 sequence: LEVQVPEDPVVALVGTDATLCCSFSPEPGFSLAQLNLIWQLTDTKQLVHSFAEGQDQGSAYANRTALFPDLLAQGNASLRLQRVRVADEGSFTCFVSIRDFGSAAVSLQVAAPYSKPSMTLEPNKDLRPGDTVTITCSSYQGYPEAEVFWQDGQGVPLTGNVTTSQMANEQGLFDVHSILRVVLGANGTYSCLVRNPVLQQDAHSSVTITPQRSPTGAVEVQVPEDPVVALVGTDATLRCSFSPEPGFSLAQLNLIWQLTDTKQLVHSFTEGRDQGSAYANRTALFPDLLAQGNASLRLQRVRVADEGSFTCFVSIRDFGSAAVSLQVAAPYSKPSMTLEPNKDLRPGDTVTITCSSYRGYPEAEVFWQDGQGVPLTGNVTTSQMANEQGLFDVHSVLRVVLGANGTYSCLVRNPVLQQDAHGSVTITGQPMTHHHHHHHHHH


Experiments:
[1] = molecular target: T1, B7-H3 on MDA-MB-468 cells; assay: flow cytometry on MDA-MB-468 cells; blank V2-R 0.9%
[2] = molecular target: T2, Lag3 (NCBI Reference Sequence: …); assay: flow cytometry on Lag3-CHO cells, PE anti-human IgG Fc secondary
[3] = molecular target: T4, Tim3 (NCBI Reference Sequence: NP_116171.3) on Tim3-CHO cells (UniProt Q8TDQ0 22-301, limits assumed); assay: flow cytometry on Tim3-CHO cells, PE anti-human IgG Fc secondary
T4 construct: whole, on cells

[4] = molecular target: T5, VISTA (NCBI Reference Sequence: NP_071436.1) on VISTA-CHO cells (UniProt Q9H7M9 33-311, limits assumed); assay: flow cytometry on VISTA-CHO cells, PE anti-human IgG Fc secondary
T5 construct: whole, on cells

antigen hB7-H3-His = molecular target: T3, antigen hB7-H3-His; assay: SPR, BiaCore T200, antibody captured on Protein A chip, hB7-H3-His as analyte, 1:1 model
[5] = molecular target: T1, B7-H3 on MDA-MB-468 cells; assay: flow cytometry on MDA-MB-468 cells, PE anti-human IgG Fc secondary, antibody from 100 nM in 3-fold dilutions; axis 'Concentration' has no unit, nM from p-1056
hB7-H3-Fc = molecular target: T6, hB7-H3-Fc; assay: ELISA on coated hB7-H3-Fc (2 ug/mL), HRP anti-human kappa secondary, A450, antibody from 300 nM in 3-fold dilutions; axis 'Concentration' has no unit, nM from p-1066
T6 construct: also called antigen hB7-H3-Fc
T6 sequence (fusion chain, as listed by the source limits assumed): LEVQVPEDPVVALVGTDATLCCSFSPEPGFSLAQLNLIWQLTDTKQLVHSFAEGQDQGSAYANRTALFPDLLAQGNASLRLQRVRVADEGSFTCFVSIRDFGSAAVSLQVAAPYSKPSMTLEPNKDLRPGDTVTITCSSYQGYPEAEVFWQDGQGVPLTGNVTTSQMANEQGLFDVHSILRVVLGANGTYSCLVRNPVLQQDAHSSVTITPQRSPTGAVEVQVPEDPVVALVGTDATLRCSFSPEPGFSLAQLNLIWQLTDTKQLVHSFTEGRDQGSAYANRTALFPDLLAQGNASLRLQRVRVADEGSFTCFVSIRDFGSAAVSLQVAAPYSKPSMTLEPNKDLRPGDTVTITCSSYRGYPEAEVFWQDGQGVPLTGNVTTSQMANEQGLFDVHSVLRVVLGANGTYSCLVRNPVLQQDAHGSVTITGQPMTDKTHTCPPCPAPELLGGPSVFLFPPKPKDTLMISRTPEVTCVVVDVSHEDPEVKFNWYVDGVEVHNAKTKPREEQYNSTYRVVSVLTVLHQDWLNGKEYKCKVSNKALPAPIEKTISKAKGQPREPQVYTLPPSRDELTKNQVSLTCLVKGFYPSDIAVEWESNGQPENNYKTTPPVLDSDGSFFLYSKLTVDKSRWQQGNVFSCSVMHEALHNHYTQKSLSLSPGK

[6] = molecular target: T2, Lag3 (NCBI Reference Sequence: …); assay: flow cytometry on Lag3-CHO cells
[7] = molecular target: T4, Tim3 (NCBI Reference Sequence: …); assay: flow cytometry on Tim3-CHO cells
[8] = molecular target: T5, VISTA (NCBI Reference Sequence: …); assay: flow cytometry on VISTA-CHO cells
[9] = molecular target: T2, Lag3 (NCBI Reference Sequence: …); assay: flow cytometry on Lag3-CHO cells; blank P3 0.5%; the filing says V1-V5 did not bind
[10] = molecular target: T4, Tim3 (NCBI Reference Sequence: …); assay: flow cytometry on Tim3-CHO cells; blank P3 0.2%; the filing says V1-V5 did not bind
[11] = molecular target: T5, VISTA (NCBI Reference Sequence: …); assay: flow cytometry on VISTA-CHO cells; blank P3 0.1%; the filing says V1-V5 did not bind

Binder	% of cells in gate V1-R at 0.411 nM [1] [%]	% of cells in gate V1-R at 1.23 nM [1] [%]	% of cells in gate V1-R at 3.7 nM [1] [%]	% of cells in gate V1-R at 11.11 nM [1] [%]	% of cells in gate V1-R at 33.33 nM [1] [%]	% of cells in gate V1-R at 100 nM [1] [%]	binding result [2]	binding result [3]	binding result [4]	Kd (antigen hB7-H3-His) [nM]	koff (antigen hB7-H3-His) [s⁻¹]	kon (antigen hB7-H3-His) [M⁻¹ s⁻¹]	EC50 [5] [nM]	EC50 (hB7-H3-Fc) [nM]	binding result [6]	binding result [7]	binding result [8]	% of cells in gate P3 at 100 nM [9] [%]	% of cells in gate P3 at 100 nM [10] [%]	% of cells in gate P3 at 100 nM [11] [%]
Antibody M1 (antibody, human IgG1, kappa, V domains shown, Chimeric antibody: murine variable regions on human IgG1 and light chain constant regions; expressed in HEK293F cells; also called chimeric antibody M1) VH: QVQLQQSGPELVKPGASVRISCKASGYTFTDYDINWVQQRPGQGLEWIGWIFPGDDTTKYNEKFKGRATLTADKSSNTAYMQLNGLTSENSAVYFCARSPSFDYWGQGTLVTVSS VL: QIVLTQSPAIMSASPGERVTMTCSASSTIGFMYWYQQKPGTSPKRWIYDTSKLASGVPARFSVSGSGTSYSLTISSMEAEDAATYYCHQRSSYPTFGGGTKLEIKR	26.5	93.1	98.7	99.5	99.7	99.7	no binding (tested: 100 nM)	no binding (tested: 100 nM)	no binding (tested: 100 nM)	0.372	0.000279	750000	1.54	3.69						
Antibody M2 (antibody, human IgG1, kappa, V domains shown, Chimeric antibody: murine variable regions on human IgG1 and light chain constant regions; expressed in HEK293F cells; also called chimeric antibody M2) VH: QVQLQQSGPELVKPGASVRISCKASGYTFTDYDINWVQQRPGQGLEWIGWIFPGDDTTKYNEKFKGRATLTADKSSNTAYMQLNGLTSENSAVYFCARSPSFDYWGQGTLVTVSS VL: DIKMTQSPSSMYASLGERVTITCKASQDINRFLSWFQQKPGKSPKTLIYRANRLRDGVPSRFSGNGSGQDYSLTISSLEYEDMGIYYCLQYDEFPPFTFGSGTKLEIKR										383	0.0491	128000	69.3							
Antibody V2 (antibody, human IgG1, kappa, V domains shown, Humanized from chimeric antibody M1; also called humanized antibody V2) VH: EVQLVQSGAEVKKSGESLKISCKASGYTFTDYDINWVRQMPGKGLEWIGWIFPGDDTTKYNEKFKGQVTLSADKSTNTAYMQWSSLKASDTAMYYCARSPSFDYWGQGTLVTVSS VL: QIVLTQSPGTLSLSPGERATLSCSASSTIGFMYWYQQKPGQAPRRWIYDTSKLASGVPDRFSVSGSGTDYTLTISRLEPEDFAVYYCHQRSSYPTFGQGTKVEIKR	1.2	1.3	60.1	97.8	99.7	99.4								2.66	no binding (tested: 100 nM)	no binding (tested: 100 nM)	no binding (tested: 100 nM)	5.6	1.8	1.8
Antibody V1 (antibody, human IgG1, kappa, V domains shown, Humanized from chimeric antibody M1; also called humanized antibody V1) VH: EVQLVQSGAEVKKSGESLKISCKASGYTFTDYDINWVRQMPGKGLEWMGWIFPGDDTTKYNEKFKGQVTISADKSTNTAYLQWSSLKASDTAMYYCARSPSFDYWGQGTLVTVSS VL: QIVLTQSPGTLSLSPGERATLSCSASSTIGFMYWYQQKPGQAPRRWIYDTSKLASGVPDRFSVSGSGTDYTLTISRLEPEDFAVYYCHQRSSYPTFGQGTKVEIKR	1.4	8.6	92.7	99.5	99.6	99.7								3.95	no binding (tested: 100 nM)	no binding (tested: 100 nM)	no binding (tested: 100 nM)	3.2	1.7	0.9
Antibody V5 (antibody, human IgG1, kappa, V domains shown, Humanized from chimeric antibody M1; also called humanized antibody V5) VH: QVQLVQSGAEVKKPGASVKVSCKASGYTFTDYDINWVRQAPGQRLEWIGWIFPGDDTTKYNEKFKGRATLTADKSASTAYMELSSLRSEDTAVYYCARSPSFDYWGQGTLVTVSS VL: QIVLTQSPSSLSASVGDRVTITCSASSTIGFMYWYQQKPGKAPKRWIYDTSKLASGVPSRFSVSGSGTDYTLTISSLQPEDFATYYCHQRSSYPTFGQGTKVEIKR	31.6	73.5	92.6	99.3	99.6	99.7								8.24	no binding (tested: 100 nM)	no binding (tested: 100 nM)	no binding (tested: 100 nM)	0.4	0.1	0.2

Source: patent US20250262316A1 (BIO THERA SOLUTIONS, published 2025)
